The results in this text go back to article PMC8396344, “Palmitoylation of Prolactin-Releasing Peptide Increased Affinity for and Activation of the GPR10, NPFF-R2 and NPFF-R1 Receptors: In Vitro Study” (International Journal of Molecular Sciences, 2021).

Read-outs that look alike come from different tables or passages of the source. Starred links: 1 amine or outer side, 2 acyl side, 3 side chain; linkers in the order of their positions; H or OH if unused. Non-standard residues stand in square brackets, D forms with d. Groups on a side chain read outwards from the residue. No end group written: not given here. *: point of attachment. γGlu = O=C(O)[C@H](CCC(=O)[*:2])N[*:1]; Palmitoyl = CCCCCCCCCCCCCCCC(=O)*; NMeF = CN[C@@H](Cc1ccccc1)C(=O)O; 125I = [125I]* Where only a bound is given, the exact number is not on record here.

The target in experiment [1] is T1, kappa-opioid receptor (UniProt P41145 1-380).
The target of experiment [2] is T2, ghrelin receptor (UniProt Q92847 1-366).
Experiment [3] addresses T3, neuropeptide Y receptor Y5 (UniProt Q15761 1-445).
T3 sequence (looked up): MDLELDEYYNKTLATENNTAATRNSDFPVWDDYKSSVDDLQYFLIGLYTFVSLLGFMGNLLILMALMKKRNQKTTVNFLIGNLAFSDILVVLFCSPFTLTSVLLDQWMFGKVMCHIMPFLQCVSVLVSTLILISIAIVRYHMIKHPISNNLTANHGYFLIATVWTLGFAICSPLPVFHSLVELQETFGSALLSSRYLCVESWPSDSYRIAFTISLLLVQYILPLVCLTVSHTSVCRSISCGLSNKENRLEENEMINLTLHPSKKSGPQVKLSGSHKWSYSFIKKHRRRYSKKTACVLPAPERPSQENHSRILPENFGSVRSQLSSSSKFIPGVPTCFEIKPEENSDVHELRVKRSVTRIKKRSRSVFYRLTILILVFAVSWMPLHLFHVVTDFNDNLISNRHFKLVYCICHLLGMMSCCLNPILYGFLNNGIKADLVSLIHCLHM

The target of experiment [4] is T4, GPR10 (human, UniProt P49683 1-370).
T4 sequence (looked up): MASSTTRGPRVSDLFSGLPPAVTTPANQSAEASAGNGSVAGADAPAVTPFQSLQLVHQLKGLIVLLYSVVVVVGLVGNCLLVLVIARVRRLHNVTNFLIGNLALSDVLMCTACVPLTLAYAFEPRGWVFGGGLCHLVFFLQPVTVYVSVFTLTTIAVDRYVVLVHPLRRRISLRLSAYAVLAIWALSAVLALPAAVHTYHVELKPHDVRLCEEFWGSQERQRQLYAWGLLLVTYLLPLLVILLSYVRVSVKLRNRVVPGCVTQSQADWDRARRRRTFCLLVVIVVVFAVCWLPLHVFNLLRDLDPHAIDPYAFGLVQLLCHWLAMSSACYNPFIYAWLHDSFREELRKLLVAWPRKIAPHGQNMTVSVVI

Experiment [5] concerns the target T5, neuropeptide Y receptor Y2 (UniProt P49146 1-381).
T5 construct: receptor of NPY, Y2; source: U2OS cells stably expressing the receptor, bought: Thermo Fisher Scientific; on cells
T5 sequence (looked up): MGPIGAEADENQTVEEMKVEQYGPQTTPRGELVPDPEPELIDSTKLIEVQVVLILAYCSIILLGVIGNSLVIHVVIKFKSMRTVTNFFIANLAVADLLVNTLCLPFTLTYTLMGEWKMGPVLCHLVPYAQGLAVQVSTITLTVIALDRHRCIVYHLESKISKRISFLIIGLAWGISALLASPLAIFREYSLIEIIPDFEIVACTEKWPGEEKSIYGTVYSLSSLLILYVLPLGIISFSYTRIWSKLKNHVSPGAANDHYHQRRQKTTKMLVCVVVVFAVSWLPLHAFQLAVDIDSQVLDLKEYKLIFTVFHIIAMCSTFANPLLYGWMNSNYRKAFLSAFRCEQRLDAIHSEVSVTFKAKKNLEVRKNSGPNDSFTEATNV
As to the kind of experiment: radioligand binding; competition with 0.1 nM [^125I]-PYY on U2OS cells with Y1, Y2 or Y5; 25 mM HEPES, 120 mM NaCl, 5 mM MgCl2, 4.7 mM KCl, 1 mM CaCl2, 0.5% BSA, 2 g/L glucose; peptides 10^-12 to 10^-5 M; 60 min at RT; Ki by the Cheng-Prusoff equation.

The target of experiment [6] is T1, kappa-opioid receptor. Kind of experiment: radioligand binding; saturation with [^125I]-dynorphin on KOR.
Experiment [7] has as its target T2, ghrelin receptor. As to the kind of experiment: radioligand binding; saturation with [^125I]-ghrelin on GHSR.
Experiment [8] deals with T6, NPFF-R1 (UniProt Q9GZQ6 1-430).
T6 construct: also called NPFF-1R; source: CHO-K1 cell line, bought: Perkin Elmer
Kind of experiment: radioligand binding; saturation with [^125I]-1DMe on membranes from CHO-K1 cells expressing NPFF-R1. Conditions: one partner purified.

Experiment [9] has as its target T2, ghrelin receptor. Kind of experiment: radioligand binding; competition with 0.1 nM [^125I]-ghrelin on U2OS cells stably expressing GHSR; 50 mM Tris-Cl pH 7.4, 118 mM NaCl, 5 mM MgCl2, 4.7 mM KCl, 0.1% BSA; peptides 10^-12 to 10^-5 M; 60 min at RT; Ki by the Cheng-Prusoff equation. Conditions: one partner purified.
In another experiment the target is T7, NPFF-R2 (UniProt Q9Y5X5 1-522).
T7 construct: also called NPFF-2R; source: CHO-K1 cell line (AequoScreen), bought: Perkin Elmer
Kind of experiment: radioligand binding; competition with [^125I]-1DMe on plasma membranes of CHO-K1 cells with NPFF-R2 or NPFF-R1, 5 µg protein/tube; 50 mM Tris-HCl pH 7.4, 60 mM NaCl, 1 mM MgCl2, 0.5% BSA; 60 min at RT; filtration; Ki by the Cheng-Prusoff equation. Conditions: one partner purified.

Experiment [10] has as its target T6, NPFF-R1. The experiment is described as above. To be noted: one partner purified.
In experiment [11] the target is T1, kappa-opioid receptor. As to the kind of experiment: cell-based or functional assay.
The target in experiment [12] is T2, ghrelin receptor. Kind of experiment: cell-based or functional assay.
Experiment [13] addresses T3, neuropeptide Y receptor Y5. As to the kind of experiment: cell-based or functional assay.
The target in experiment [14] is T4, GPR10. Kind of experiment: cell-based or functional assay.
Experiment [15] concerns the target T8, neuropeptide Y receptor Y1 (UniProt P25929 1-384).
T8 construct: receptor of NPY, Y1; source: U2OS cells stably expressing the receptor, bought: Thermo Fisher Scientific; on cells
T8 sequence (looked up): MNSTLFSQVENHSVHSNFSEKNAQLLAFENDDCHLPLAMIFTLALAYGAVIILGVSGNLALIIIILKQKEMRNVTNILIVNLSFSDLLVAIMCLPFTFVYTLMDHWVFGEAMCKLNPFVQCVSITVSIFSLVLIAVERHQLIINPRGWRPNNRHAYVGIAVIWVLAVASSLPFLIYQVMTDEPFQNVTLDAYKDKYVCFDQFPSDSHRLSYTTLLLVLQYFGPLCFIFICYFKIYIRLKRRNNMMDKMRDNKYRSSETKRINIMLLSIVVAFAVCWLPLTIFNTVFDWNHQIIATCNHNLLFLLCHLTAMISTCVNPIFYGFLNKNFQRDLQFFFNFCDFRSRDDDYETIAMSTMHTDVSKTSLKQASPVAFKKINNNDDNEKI
As to the kind of experiment: radioligand binding; competition with 0.1 nM [^125I]-PYY on U2OS cells with Y1, Y2 or Y5; 25 mM HEPES, 120 mM NaCl, 5 mM MgCl2, 4.7 mM KCl, 1 mM CaCl2, 0.5% BSA, 2 g/L glucose; peptides 10^-12 to 10^-5 M; 60 min at RT; Ki by the Cheng-Prusoff equation. To be noted: one partner purified.

Experiment [16] addresses T3, neuropeptide Y receptor Y5. The description is as above. Conditions: one partner purified.
Experiment [17] concerns the target T4, GPR10. Kind of experiment: radioligand binding; competition with [^125I]-PrRP31 on CHO-K1 cells expressing human GPR10; Ki by the Cheng-Prusoff equation. To be noted: one partner purified.
The target of experiment [18] is T1, kappa-opioid receptor. Kind of experiment: radioligand binding; competition with [^125I]-dynorphin A on plasma membranes of CHO-K1 cells with KOR, 5 µg protein/tube; 50 mM Tris-HCl pH 7.4, 60 mM NaCl, 1 mM MgCl2, 0.5% BSA; 60 min at RT; filtration; Ki by the Cheng-Prusoff equation. Conditions: one partner purified.

In the case of Palm-PrRP31 (peptide), the EC50, agonist mode, β-lactamase reporter assay was above 10000 nM with kappa-opioid receptor [1], 1270 nM with ghrelin receptor [2], 56.5 nM in experiment [3] and 0.0718 nM in the experiment with GPR10 [4]. In experiment [5], this molecule had a Ki above 10000 nM.
In turn, [^125I]-dynorphin A (peptide) had a Kd with kappa-opioid receptor [6] of 2.38 nM.
Molecule [^125I]-ghrelin (peptide) had a Kd in the experiment with ghrelin receptor [7] of 0.44 nM.

B1: [^125I]-1DMe (peptide)
peptide: [dY](125I)L[NMeF]QPQRF-NH2
notes: 1DMe iodinated at D-Tyr1; numbers count on: the peptide
In turn, B1 displayed a Kd with NPFF-R1 [8] of 0.94 nM.

B2: Palm^11-PrRP31 (peptide)
peptide: SRTHRHSMEIK([γGlu-Palmitoyl])TPDINPAWYASRGIRPVGRF-NH2
notes: analog of human PrRP31 with Arg11 replaced by Lys11 that carries palmitic acid through a gamma-Glu linker; numbers count on: the peptide PrRP31; source: synthetic peptide, palmitoylated on resin, purified (HPLC, purity greater than 95%)
Consider B2, for which the Ki was 2800 nM with ghrelin receptor [9]; 7.66 nM in the experiment with NPFF-R2; 13.5 nM in the experiment with NPFF-R1 [10]; above 10000 nM in experiment [15]; above 10000 nM in experiment [5] (one partner purified); 362 nM in experiment [16]. Moreover, the figures for the Ki with GPR10 [17] and in the experiment with kappa-opioid receptor [18] were 3.44 nM and 4280 nM, respectively. Further, the “EC50, agonist mode, β-lactamase reporter assay” value is above 10000 nM with kappa-opioid receptor [11], 1070 nM with ghrelin receptor [12], 583 nM in experiment [13] and 0.0391 nM with GPR10 [14].

Usually Ki stands for the equilibrium dissociation constant of an inhibitor or competing ligand from its target. A higher Ki goes with lower affinity. The Kd is the equilibrium constant for the complex coming apart.
